Source: PMC9585320 (Frontiers in Molecular Biosciences, 2022)

Experiments:
[1] = biological target: MazF9 toxin, (His)6MazF(FLAG)3 (Mycobacterium tuberculosis) (UniProt P71650); assay: SEC-MALS
[2] = biological target: MazF3 toxin, (His)6MazF(FLAG)3 (Mycobacterium tuberculosis) (UniProt P9WIH8); assay: MST
[3] = biological target: MazF9 toxin, (His)6MazF(FLAG)3 (Mycobacterium tuberculosis) (UniProt P71650); assay: MST
[4] = biological target: MazE3 antitoxin, full length, (His)6MazE(FLAG)3 (Mycobacterium tuberculosis) (UniProt O53451); assay: SEC-MALS
[5] = biological target: MazE9 antitoxin, full length, (His)6MazE(FLAG)3 (Mycobacterium tuberculosis) (UniProt P0CL61); assay: SEC-MALS
[6] = biological target: MazF6 toxin WT, purified (Mycobacterium tuberculosis) (UniProt P9WII2); assay: SEC-MALS
SEC-MALS = biological target: the molecule itself; assay: SEC-MALS
MazE3 library = assay: flow cytometry on cells

MazF9 toxin, (His)6MazF(FLAG)3 (Mycobacterium tuberculosis), sequence (P71650 whole entry): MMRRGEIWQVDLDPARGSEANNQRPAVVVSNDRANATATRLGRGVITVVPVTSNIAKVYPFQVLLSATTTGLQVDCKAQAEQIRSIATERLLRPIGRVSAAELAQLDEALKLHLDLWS

Molecule: MazF9 toxin, (His)6MazF(FLAG)3 (from UniProt P71650 1-118) (natural protein)
- stoichiometry N [1]: 2

Molecule: C-terminal MazE3 peptide (residues 72-106) (from UniProt O53451 72-106)
- Kd [2]: 299 nM
- Kd [3]: 200 nM

Molecule: MazE3 antitoxin, full length, (His)6MazE(FLAG)3 (from UniProt O53451 1-106) (natural protein)
- stoichiometry N [4]: 2

Molecule: C-terminal MazE9 peptide (residues 43-76) (from UniProt P0CL61 43-76)
- Kd [3]: 5.7 nM

Molecule: MazE9 antitoxin, full length, (His)6MazE(FLAG)3 (from UniProt P0CL61 1-76) (natural protein)
- Kd [3]: 8.9 nM
- stoichiometry N [5]: 2

Molecule: MazF6 toxin WT, purified (from UniProt P9WII2 1-114) (natural protein)
- stoichiometry N [6]: 2

B1: MazF3 toxin, (His)6MazF(FLAG)3 (natural protein)
chain: MRPIHIAQLDKARPVLILTREVVRPHLTNVTVAPITTTVRGLATEVPVDAVNGLNQPSVVSCDNTQTIPVCDLGRQIGYLLASQEPALAEAIGNAFDLDWVVA
- stoichiometry N (SEC-MALS): 2
- Kd (MazE3 library): 1.7 nM
